Blank lines part the entries; values can stand above or below the molecule they belong to. Residues, ends and D or L forms follow the SMILES beside them. No end group written: not given here. *: point of attachment. Cbz = O=C(OCc1ccccc1)*
Experiments:
[1] = target: T1, GDF15 (Homo sapiens, UniProt Q99988); assay: Biotin pull-down of GDF15 using biotinylated peptides derived from QRFPR and CLPTM1; type: binding; conditions: N-terminal biotin peptides on Streptavidin-agarose beads, extensive washes; FIG. 8A
T1 construct: purchased Abcam
T1 sequence (Q99988 197-308 limits assumed): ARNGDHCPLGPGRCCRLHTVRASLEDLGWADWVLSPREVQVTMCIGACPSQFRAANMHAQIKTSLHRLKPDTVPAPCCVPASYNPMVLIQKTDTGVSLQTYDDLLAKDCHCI
Method: In order to further characterise the peptides which interact with GDF15, a series of GST-fusion proteins and biotinylated peptides was prepared. GDF15 was obtained from Biovision and/or Abcam.
A series of peptides from the QRFPR and the CLPTM1 proteins was designed. In order to use the peptides both for immunoprecipitation experiments and cell culture based assays added an N-terminal biotin was added to each peptide, and the counter-ion changed to chloride.
A series of biotinylated peptides was used (FIG. 8A). […] Combinations of the peptides were also used. Peptides were mixed in a 1:1 ratio, with same total amounts as in lanes 1-5, resulting in 50% of each peptide as compared to lanes 1-5. Lane 6: EC domain 3 & EC domain 4 from QRFPR; Lane 7: EC domain 4 from QRFPR & peptide from EC domain of CLPTM1; Lane 8: EC domain 3 from QRFPR & peptide from EC domain of CLPTM1; Lane 9: Mw markers; Lane 10: GDF15 (positive control).

[2] = target: T1, GDF15; assay: Pull down of GDF15 by Fc fusion proteins with stringent washes; type: binding; conditions: 20 μg Fc fusion protein, 0.5 μg GDF15, protein-G bead, FIG. 27
Method: (§1) 20 μg Fc fusion protein constructs were incubated with 0.5 μg GDF15 and protein-G bead with mixing for 6 hrs in +4 C in PBST+1% BSAs. Wash 6 times: 3 times PBST, change tubes, 2 washes PBST+220 mM NaCl. Last wash PBS. The beads were collected using a table-top centrifuge set at 500 g for 5 minutes between washes. Detection The material was loaded on a 4-12% gradient gel, run at 100 volt, transferred to PVDF membrane using a Turbo Tank blot system, blocked by PBS with 3% BSA 1 hr RT, and incubated with RD systems a monoclonal anti-GDF15 antibody overnight. A secondary antibody: mouse HRP 1:2000 was used for detection. The size of band was estimated by comparing with a seeblue2 protein ladder marker run in an adjacent lane.
The fragments from the receptors were selected based on previous results including array data indicating direct interaction with GDF15. In the array, the interaction is between a peptide monomer and the ligand.

[3] = system: CD14+ cells; assay: Cytokine secretion by LPS-stimulated CD14+ cells (Proseek assay); type: cell-based
Method: CD14+ cells where isolated and cultured in the presence or absence of GDF15 in a LPS stimulated culture.
Buffy coat cell suspension or heparinized blood samples were diluted with sterile, room temperature PBS. Peripheral blood samples are diluted 1:1, whereas buffy coats are diluted to a final volume of 120 ml (in a standard buffy coat this will result in slightly greater dilution than 1:1). The diluted cell suspension was layered onto Ficoll Paque PLUS. For one buffy 4×15 ml aliquots are used (30 ml of diluted cell suspension/tube). Cells were centrifuged at 400×g for 30 min at room temperature and transferred to a new 50 ml tube. Cells were washed once and resuspended in 20 ml PBS.
Mononuclear cell suspension was pelleted by centrifugation. Cells were resuspended in Stemcell buffer at a concentration of 10^8 cells/ml and transferred to a round bottom 14 ml tube. EasySep Positive Selection cocktail at was added at 100 μl/ml cells, mixed by gentle pipetting, and incubated at room temperature for 15 min. 50 μl EasySep Magnetic Nanoparticles per 1 ml cells were added and mixed, and incubated at room temperature for 10 min. Stemcell recommended medium was added to bring the cell suspension to a total volume of 5 ml and mixed by gently pipetting. The tube (without cap) was placed into the magnet and set aside for 5 min. After 5 minutes the supernatant was discarded. CD14+ labelled cells will remain inside the tube. The tube was removed from the magnet and add 5 ml Stemcell recommended medium was added and mixed by gently pipetting. The tube (without cap) was placed into the magnet and set aside for 5 min. The was step was repeated before the cells were resuspended in 5 ml complete RPMI medium. 50 μl of the CD14+ cell suspension was removed and counted to determine total cell number after dilution in Trypan blue solution and mounting on Fast Read 102 Counting Slides.
Adjust CD14+ cell suspension volume to a concentration of 0.833×10^6 cells/ml in complete RPMI medium. 300 μl of cell suspension is added to wells in a 48 well plate well (0.25×10^6 cells per well), and allowed to adhere for 90 min in an incubator at 37° C. Non-adherent cells were removed by removal of the supernatant after gently pipetting the medium. Cells were washed once with 300 μl pre-warmed complete RPMI medium and the medium aspirated off. 300 μl pre-warmed complete RPMI medium was added to each well and the cells were incubate overnight (20-24 h) in a cell incubator at 37° C.
A 17× stock solution of the desired GDF15 modulatory substances was diluted in complete RPMI. (20 μl of substance/well assayed). 20 μl of modulatory substance or medium/carrier (negative control) was added to each well and mixed by gentle pipetting. Cells were incubated for 30 min in a cell incubator at 37° C. A 17×GDF15 solution was prepared by diluting a 100 μg/ml stock solution to a concentration of 8.5 μg/ml (final concentration in culture 0.5 μg/ml) in complete RPMI. 20 μl of diluted GDF15 was added per well, and incubated overnight (18-20 h) in a cell incubator at 37° C.
A 18×LPS solution was prepared by diluting the LPS stock solution to a concentration of 18 ng/ml (final concentration in culture 1 ng/ml) in complete RPMI. 20 μl of LPS or medium (negative control) was added to each well and mixed by gentle pipetting. […]
Secreted proteins from cell cultures where quantified using multiplexed proximity extension assay, Proseek (Assarsson E et al PlosOne 2014) by Olink Proteomics AB (Uppsala Sweden). […]

[4] = target: T2, QRFPR (Homo sapiens, UniProt Q96P65); assay: QRFPR levels after prolonged GDF15 stimulation with or without proteasome inhibition; type: cell-based; conditions: MG132 10 μM + GDF15 overnight vs equal GDF15 without MG132; FIG. 6
T2 construct: endogenous in cells
T2 sequence (Q96P65 1-431): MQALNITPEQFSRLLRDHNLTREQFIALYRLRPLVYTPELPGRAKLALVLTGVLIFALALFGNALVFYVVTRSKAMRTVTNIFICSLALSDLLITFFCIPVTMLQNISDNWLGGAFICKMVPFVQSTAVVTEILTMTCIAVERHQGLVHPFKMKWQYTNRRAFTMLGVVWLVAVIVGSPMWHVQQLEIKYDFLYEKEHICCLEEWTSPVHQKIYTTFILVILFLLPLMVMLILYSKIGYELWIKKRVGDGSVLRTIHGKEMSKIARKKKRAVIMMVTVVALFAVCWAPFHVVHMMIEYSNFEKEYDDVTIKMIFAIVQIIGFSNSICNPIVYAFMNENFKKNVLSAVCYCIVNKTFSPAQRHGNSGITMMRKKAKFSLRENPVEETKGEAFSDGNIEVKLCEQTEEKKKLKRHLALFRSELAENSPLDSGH
Method: This effect is not seen in cells which are treated with MG132 (FIG. 6D).

[5] = target: T3, Growth and differentiation factor 15 (GDF15) (UniProt Q99988 197-308, limits assumed); assay: Fc-fusion pull-down on protein-G beads, Western blot
T3 construct: Purchased GDF15 added to cells, pull-downs, peptide arrays and ELISA; also called MIC1
T3 sequence (looked up): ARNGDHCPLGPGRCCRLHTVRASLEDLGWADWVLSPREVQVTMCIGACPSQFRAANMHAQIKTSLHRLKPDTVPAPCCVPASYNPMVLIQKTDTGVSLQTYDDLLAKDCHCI
Method: as §1

[6] = target: T4, Cleft Lip and Palate Transmembrane protein 1 (CLPTM1) (human, UniProt O96005 2-669); assay: in situ PLA on NK-92 cells
T4 construct: Endogenous receptor of NK-92 cells, CD14+ cells and human tissues
T4 sequence: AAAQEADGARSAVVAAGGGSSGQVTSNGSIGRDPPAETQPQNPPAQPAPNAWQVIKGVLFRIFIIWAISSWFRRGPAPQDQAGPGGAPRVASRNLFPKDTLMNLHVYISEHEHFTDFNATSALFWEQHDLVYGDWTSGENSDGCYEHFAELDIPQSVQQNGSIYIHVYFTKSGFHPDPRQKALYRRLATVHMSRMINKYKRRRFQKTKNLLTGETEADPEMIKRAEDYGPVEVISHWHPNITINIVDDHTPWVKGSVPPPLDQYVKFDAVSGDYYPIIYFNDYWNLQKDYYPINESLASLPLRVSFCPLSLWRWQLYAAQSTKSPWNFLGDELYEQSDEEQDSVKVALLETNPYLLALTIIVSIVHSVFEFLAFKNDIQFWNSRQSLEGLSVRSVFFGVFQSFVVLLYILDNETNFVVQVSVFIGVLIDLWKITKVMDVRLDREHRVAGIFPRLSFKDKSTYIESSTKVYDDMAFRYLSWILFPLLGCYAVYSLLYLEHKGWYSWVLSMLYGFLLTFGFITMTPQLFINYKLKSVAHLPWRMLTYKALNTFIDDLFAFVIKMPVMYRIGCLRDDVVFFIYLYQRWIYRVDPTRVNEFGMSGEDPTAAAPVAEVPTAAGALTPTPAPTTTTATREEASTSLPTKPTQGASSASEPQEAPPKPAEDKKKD

[7] = LPS stimulated CD14+ cells with GDF15 + agent

Molecule: GEIKYDFLYEKEHICCLEEWTS (listed as Homo sapiens) [SEQ ID NO:10]
- GDF15 precipitated by biotinylated peptide (pull-down) [1]: more successful than the others in precipitating GDF15

- pull down of GDF15 by Fc fusion protein [2]: capable of pulling down GDF15
Molecule: Fc mouse IgG1-GGGGSGGGGSGGGGSYISEHEHFTDFNATSALFWEQHDLVYGDWTS ({Fc mouse IgG1}-GGGGSGGGGSGGGGSYISEHEHFTDFNATSALFWEQHDLVYGDWTS) [AP2, Fc fusion protein with CLPTM1 peptide]
- secretion of IFNγ ([3]; LPS stimulated CD14+ cells + agent, FIG. 30): demonstrated secretion of the pro-inflammatory protein IFNγ
- secretion of IL12 [3, 7]: increase in secretion of both cytokines
- secretion of TNF [3, 7]: increase in secretion of both cytokines

Molecule: GALFWEQHDLVYGDWTS (listed as Homo sapiens) [SEQ ID NO:19]
- GDF15 precipitated by biotinylated peptide (pull-down) [1]: more successful than the others in precipitating GDF15

Molecule: CC(C)C[C@@H](C=O)NC(=O)[C@H](CC(C)C)NC(=O)[C@H](CC(C)C)NC(=O)OCc1ccccc1 [MG132, reference compound] (Cbz-Leu-Leu-Leu-aldehyde)
- levels of QRFPR [4]: levels of QRFPR were increased

- binding result [5]: binds
B1: AP2 (CLPTM1 peptide): Fc mouse IgG1-GGGGSGGGGSGGGGSYISEHEHFTDFNATSALFWEQHDLVYGDWTS (Fc fusion, not shown: a dimerising Fc or GST)
chain: {Fc mouse IgG1}-GGGGSGGGGSGGGGSYISEHEHFTDFNATSALFWEQHDLVYGDWTS
modifications: also: Fc fusion dimer
notes: also called AP2 construct; Fc fusion protein comprising a CLPTM1 polypeptide

- binding result [5]: binds
B2: AP5 (QRFPR peptide): Fc mouse IgG1-GGGGSGGGGSGGGGSQRLEIKYDFLYEKEH (Fc fusion, not shown: a dimerising Fc or GST)
chain: {Fc mouse IgG1}-GGGGSGGGGSGGGGSQRLEIKYDFLYEKEH
modifications: also: Fc fusion dimer
notes: if the entry holds the Fc too, the first part is redundant; also called AP5 construct; Fc fusion protein comprising a QRFPR polypeptide

- binding result [6]: binds
B3: TGFBRI (ALK5) (receptor, UniProt P36897 34-503, looked up)
chain: LQCFCHLCTKDNFTCVTDGLCFVSVTETTDKVIHNSMCIAEIDLIPRDRPFVCAPSSKTGSVTTTYCCNQDHCNKIELPTTVKSSPGLGPVELAAVIAGPVCFVCISLMLMVYICHNRTVIHHRVPNEEDPSLDRPFISEGTTLKDLIYDMTTSGSGSGLPLLVQRTIARTIVLQESIGKGRFGEVWRGKWRGEEVAVKIFSSREERSWFREAEIYQTVMLRHENILGFIAADNKDNGTWTQLWLVSDYHEHGSLFDYLNRYTVTVEGMIKLALSTASGLAHLHMEIVGTQGKPAIAHRDLKSKNILVKKNGTCCIADLGLAVRHDSATDTIDIAPNHRVGTKRYMAPEVLDDSINMKHFESFKRADIYAMGLVFWEIARRCSIGGIHEDYQLPYYDLVPSDPSVEEMRKVVCEQKLRPNIPNRWQSCEALRVMAKIMRECWYANGAARLTALRIKKTLSQLSQQEGIKM
notes: whole, on cells; also called TGFBR1

- binding result [6]: binds
B4: TGFBRII (receptor, UniProt P37173 23-567, looked up)
chain: TIPPHVQKSVNNDMIVTDNNGAVKFPQLCKFCDVRFSTCDNQKSCMSNCSITSICEKPQEVCVAVWRKNDENITLETVCHDPKLPYHDFILEDAASPKCIMKEKKKPGETFFMCSCSSDECNDNIIFSEEYNTSNPDLLLVIFQVTGISLLPPLGVAISVIIIFYCYRVNRQQKLSSTWETGKTRKLMEFSEHCAIILEDDRSDISSTCANNINHNTELLPIELDTLVGKGRFAEVYKAKLKQNTSEQFETVAVKIFPYEEYASWKTEKDIFSDINLKHENILQFLTAEERKTELGKQYWLITAFHAKGNLQEYLTRHVISWEDLRKLGSSLARGIAHLHSDHTPCGRPKMPIVHRDLKSSNILVKNDLTCCLCDFGLSLRLDPTLSVDDLANSGQVGTARYMAPEVLESRMNLENVESFKQTDVYSMALVLWEMTSRCNAVGEVKDYEPPFGSKVREHPCVESMKDNVLRDRGRPEIPSFWLNHQGIQMVCETLTECWDHDPEARLTAQCVAERFSELEHLDRLSGRSCSEEKIPEDGSLNTTK
notes: whole, on cells

— US20180282403A1, “AGENTS FOR REDUCING THE ACTIVITY OF GDF15” (GENAGON THERAPEUTICS AB, priority 2015, published 2018)
